Source: the Human Domainome abundance scans (Beltran et al. 2025)
± gives the uncertainty stated by the source.

B1: Zinc finger homeobox protein 3, residues 2643 to 2698; numbered along this chain, Q15911 (parent)
chain: RLRTTITPEQLEILYQKYLLDSNPTRKMLDHIAHEVGLKKRVVQVWFQNTRARERK

Variants of: B1
Assay: abundance fitness (aPCA) (normalised: wild type 0, dead -1); higher = more abundant; growth selection in yeast, the domain comes from the species named
Details: Homo sapiens

Abundance fitness: each site, then its substitutions
S22: K -0.178 ± 0.14, P 0.099 ± 0.13, W -0.491 ± 0.11, L -0.643 ± 0.1, D 0.075 ± 0.12, Q 0.037 ± 0.14, H -0.24 ± 0.17, T -0.315 ± 0.13, A -0.003 ± 0.086
E54: N -0.531 ± 0.1, Y -0.438 ± 0.11, C -0.306 ± 0.1, H -0.229 ± 0.084, V -0.39 ± 0.079, W -0.512 ± 0.12, L -0.2 ± 0.069
Q10: T -0.296 ± 0.076, H -0.356 ± 0.074, W -0.856 ± 0.12, C -0.52 ± 0.086, M -0.411 ± 0.09
N23: L -0.389 ± 0.12, A -0.23 ± 0.13, Q 0.066 ± 0.14, H -0.354 ± 0.26, I -0.414 ± 0.23
T7: P 0.101 ± 0.14
N49: H -0.412 ± 0.24, W -0.68 ± 0.12, T 0.04 ± 0.12, Q -0.168 ± 0.14, C -0.496 ± 0.12
L14: A -0.908 ± 0.13, I -0.951 ± 0.27, P -0.879 ± 0.24, V -0.926 ± 0.12, S -0.763 ± 0.1, E -0.791 ± 0.12, D -0.568 ± 0.25
R41: L -0.001 ± 0.1, T 0.514 ± 0.15, Q 0.287 ± 0.15
T4: E 0.439 ± 0.14, K -0.318 ± 0.16, H -0.337 ± 0.17, C -0.56 ± 0.19
I6: P -0.182 ± 0.083, H -0.332 ± 0.09, S -0.648 ± 0.081, Y 0.035 ± 0.081, R -0.868 ± 0.1
T50: H -0.11 ± 0.17, M 0.092 ± 0.13, K -0.091 ± 0.13, P -0.6 ± 0.12, R -0.037 ± 0.072, N -0.572 ± 0.36
E12: Q -0.049 ± 0.13, S -0.114 ± 0.088, D -0.109 ± 0.12, A -0.07 ± 0.082, W -0.749 ± 0.12, K -0.625 ± 0.21, I -0.438 ± 0.19
L11: R 0.049 ± 0.074, Y -0.024 ± 0.15, H 0.028 ± 0.13, W -0.11 ± 0.097
H34: K 0.213 ± 0.16, W -0.095 ± 0.1, M -0.092 ± 0.14, D 0.035 ± 0.15
K40: W 0.212 ± 0.11, S 0.237 ± 0.092, I 0.093 ± 0.17, D 0.006 ± 0.16, C -0.195 ± 0.14, H -0.049 ± 0.16, N 0.238 ± 0.17, T 0.355 ± 0.1
R26: D 0.458 ± 0.13, V 0.383 ± 0.078, I 0.323 ± 0.13, K 0.123 ± 0.12, G 0.386 ± 0.072, W 0.401 ± 0.09
I13: C -0.058 ± 0.094, L -0.084 ± 0.085, T -0.01 ± 0.1, E -0.339 ± 0.12, M -0.253 ± 0.13, F 0.119 ± 0.14, Y 0.012 ± 0.14
P24: V -0.785 ± 0.088, K -0.935 ± 0.21, E -0.78 ± 0.14, G -0.857 ± 0.088, M -0.777 ± 0.16
A52: K 0.035 ± 0.14, C -0.209 ± 0.12, Y -0.221 ± 0.22
L19: D -0.211 ± 0.13, I -0.583 ± 0.17, K -0.022 ± 0.18, W -0.365 ± 0.11, A -0.075 ± 0.11, C -0.032 ± 0.12
Q16: G -0.113 ± 0.077, P -1.08 ± 0.21, M 0.225 ± 0.11, A 0.052 ± 0.086, F 0.042 ± 0.22, T -0.021 ± 0.13
A33: L -0.872 ± 0.089, W -0.728 ± 0.18, V -0.492 ± 0.084, T -0.43 ± 0.08, C -0.127 ± 0.1
R53: G 0.126 ± 0.071, D 0.31 ± 0.14, K -0.045 ± 0.12, H -0.258 ± 0.15, F 0.239 ± 0.24
T25: K -0.506 ± 0.15, Y -0.908 ± 0.32, Q -0.505 ± 0.16, D 0.189 ± 0.11, N -0.206 ± 0.2, L -0.552 ± 0.095, G -0.394 ± 0.074, R -0.753 ± 0.093
V43: Y -0.807 ± 0.22, E -1.11 ± 0.14, L -0.485 ± 0.097, P -0.739 ± 0.14, W -1.07 ± 0.18, N -0.64 ± 0.2
E9: R -0.277 ± 0.077, N -0.218 ± 0.1, Y -0.286 ± 0.08, C -0.712 ± 0.091, V -0.246 ± 0.075, P -0.293 ± 0.082, L -0.31 ± 0.069
K17: D -0.651 ± 0.2, A -0.08 ± 0.093, Y -0.096 ± 0.26, N 0.228 ± 0.15, F 0.528 ± 0.31
R1: A 0.267 ± 0.21, K 0.027 ± 0.2, N 0.354 ± 0.26, G 0.258 ± 0.11, S 0.131 ± 0.15, Y 0.054 ± 0.32
V36: H -0.964 ± 0.2, P -1 ± 0.19, I 0.191 ± 0.12, W -0.495 ± 0.14, N -0.761 ± 0.25
R51: C -0.044 ± 0.11, I -0.286 ± 0.16, Y 0.073 ± 0.17, P -0.812 ± 0.14, Q 0.229 ± 0.12, T -0.305 ± 0.16, H 0.164 ± 0.19, E -0.163 ± 0.1
D30: Q 0.1 ± 0.14, F -0.446 ± 0.22, E -0.29 ± 0.11, R -0.124 ± 0.081, A -0.046 ± 0.084, G -0.073 ± 0.077, T -0.312 ± 0.13
L20: Q 0.109 ± 0.1, W -0.227 ± 0.088, K -0.147 ± 0.12, F -0.111 ± 0.13, A -0.211 ± 0.096
E35: K -0.356 ± 0.15, I -0.029 ± 0.14, A -0.127 ± 0.091, T 0.063 ± 0.092, N -1.01 ± 0.28, F -0.557 ± 0.15
L29: G -0.683 ± 0.092, P -0.8 ± 0.15, F 0.069 ± 0.12, S -0.488 ± 0.091
R3: F 0.037 ± 0.15, T 0.435 ± 0.12, A 0.493 ± 0.083, Q 0.353 ± 0.13, Y 0.006 ± 0.17, S 0.43 ± 0.094, C 0.216 ± 0.11, G 0.228 ± 0.076, K 0.209 ± 0.11, H 0.199 ± 0.15, N 0.173 ± 0.17, M 0.317 ± 0.12
W46: T -0.865 ± 0.22, S -0.867 ± 0.14, P -0.891 ± 0.17, A -0.482 ± 0.12, N -0.902 ± 0.37, Q -0.829 ± 0.16, R -0.678 ± 0.094, G -0.792 ± 0.1, H -0.897 ± 0.31
V42: A -0.123 ± 0.095, M -0.068 ± 0.11, L -0.03 ± 0.087, G -0.43 ± 0.081, S -0.327 ± 0.092, R -0.44 ± 0.091, Y -0.021 ± 0.15, F -0.47 ± 0.17
H31: E 0.265 ± 0.1, P -0.836 ± 0.19, Y -0.014 ± 0.19, N 0.315 ± 0.16, K -0.166 ± 0.15, W -0.251 ± 0.14, L 0.056 ± 0.095
F47: K -0.812 ± 0.21, L -0.639 ± 0.098, V -0.902 ± 0.14, W -0.106 ± 0.095, C -0.945 ± 0.17, M -0.522 ± 0.13, D -0.833 ± 0.23
K39: D 0.189 ± 0.13, V -0.01 ± 0.092, Q 0.108 ± 0.15, G 0.178 ± 0.072, N -0.153 ± 0.14, H -0.392 ± 0.18, Y -0.114 ± 0.22, F -0.929 ± 0.28
P8: N -0.06 ± 0.3, S -0.09 ± 0.1, V 0.544 ± 0.094, M 0.57 ± 0.15, C 0.475 ± 0.15, L 0.991 ± 0.1, A 0.388 ± 0.095, W 0.193 ± 0.12
Q48: R -0.204 ± 0.078, V -0.147 ± 0.1, G -0.164 ± 0.075, H -0.108 ± 0.2, C -0.189 ± 0.14, W -0.217 ± 0.091, A 0.122 ± 0.12, P -0.615 ± 0.15
D21: Y -0.675 ± 0.22, R -0.803 ± 0.1, V -0.407 ± 0.099, I -0.533 ± 0.21, C -0.426 ± 0.15, W -0.741 ± 0.12
I32: W -0.129 ± 0.11, A -0.886 ± 0.1, M -0.466 ± 0.1, S -0.735 ± 0.1, K -0.807 ± 0.14
T5: V -0.172 ± 0.089, D 0.075 ± 0.14, K -0.593 ± 0.23, W -0.192 ± 0.15, A 0.132 ± 0.097
Y15: G 0.126 ± 0.075, R 0.032 ± 0.074, L 0.016 ± 0.09, Q 0.244 ± 0.1, S 0.138 ± 0.094, I 0.183 ± 0.22, F -0.444 ± 0.17, M -0.049 ± 0.11
L38: Q -0.734 ± 0.16, I -0.786 ± 0.23, N -1.02 ± 0.24, W -0.746 ± 0.11, K -0.712 ± 0.17, V -0.163 ± 0.078
K56: M -0.204 ± 0.4, T 0.01 ± 0.23, V -0.073 ± 0.18, P -0.225 ± 0.38
R55: F 0.004 ± 0.18, V 0.282 ± 0.082, A 0.239 ± 0.086, Q 0.216 ± 0.18, T 0.479 ± 0.14
K27: V -0.007 ± 0.081, F -0.293 ± 0.16, C -0.342 ± 0.17, A 0.018 ± 0.08
L2: P -0.227 ± 0.16, Y 0.222 ± 0.16, S 0.331 ± 0.1, I 0.217 ± 0.13, W -0.134 ± 0.13
V45: I 0.158 ± 0.11, L 0.122 ± 0.084, E 0.452 ± 0.097, M -0.005 ± 0.1, Q -0.016 ± 0.11, P -0.764 ± 0.14, Y -0.263 ± 0.14, N -0.489 ± 0.17, F -0.028 ± 0.15, K -0.399 ± 0.12
Y18: P -0.847 ± 0.19, G -0.899 ± 0.093, F 0.251 ± 0.17, H -1.03 ± 0.35, T -1.03 ± 0.22, L -0.552 ± 0.12, D -0.96 ± 0.17, I -0.62 ± 0.23
G37: T -0.825 ± 0.13, N -0.306 ± 0.13, D -0.384 ± 0.1, Y -0.919 ± 0.16, H -0.404 ± 0.16, M -0.53 ± 0.12, V -0.812 ± 0.09
Q44: K -0.236 ± 0.12, R -0.331 ± 0.094, D 0.481 ± 0.12, G 0.023 ± 0.091
